± gives the half width of the 95% confidence interval.
What was measured:
[1] = folding stability dG unfold from trypsin proteolysis; higher = more stable
In short: (§1)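 Sequencing followed digestion of designed mini-proteins with trypsin and chymotrypsin, each at 11 concentrations in threefold dilutions together with a no-protease condition. The mini-proteins were under 80 residues, had no cysteine, sat in a PA-tagged cDNA display construct, and were kept only if AlphaFold2 dimer inter-PAE was above 15. From the counts, Bayesian fitting gave K50, and unfolding free energy was derived against a sequence-predicted unfolded-state K50 and a shared folded-state K50, per protease or combined.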

[2] = folding stability dG unfold (combined trypsin and chymotrypsin); higher = more stable
In short: as §1

[3] = folding stability dG unfold from chymotrypsin proteolysis; higher = more stable
In short: as §1

| Sequence | folding stability dG unfold [1] | folding stability dG unfold [2] | folding stability dG unfold [3] |
| --- | --- | --- | --- |
| SAGGSAGGSAGGNPPDWKPVGEEEFPIPNPNGMQIKISVWTIRAPDDGKSASFIDIEMYPSAGGSAGGSAGG [r7_546_TrROS] | 1.19 ± 0.07 kcal/mol | 1.58 ± 0.32 kcal/mol | 1.87 ± 0.072 kcal/mol |
| SAGGSAGGSPVKDPDGKEVVPIQMTFIIRDPEMGKPVLITITFYIDPAPGGKIKDISIDIFPLSAGGSAGGS [r12_0_TrROS] | 3.51 ± 0.27 kcal/mol | 4.04 ± 0.17 kcal/mol | 4.29 ± 0.17 kcal/mol |
| SAGGSAGGSAGMKTITKKVKSEEEAKKLAEELKKKGYKVEVEVKKDPKTGNYIVTITIELPESAGGSAGGSA [r18_455_JUSTAS] | 3.32 ± 0.18 kcal/mol | 3.91 ± 0.39 kcal/mol | 3.89 ± 0.19 kcal/mol |
| SAGGLTPEQWREIAKNFANELAKEYQERGPNVKIDVEVDPEEGYFKIKVENNDENMPRTITIPWDDIRSAGG [r13_354_TrROS] | 0.701 ± 0.046 kcal/mol | 1.1 ± 0.079 kcal/mol | 1.35 ± 0.066 kcal/mol |
| SAGQTIRIDEIYPHPDGFLIKIRYPDGKVHTFPIKPNMPITVDGDTITITFPGGPITIPLENMEIEILPSAG [r5_999_TrROS] | 3.28 ± 0.069 kcal/mol | 3.24 ± 0.064 kcal/mol | 3.17 ± 0.039 kcal/mol |
| KTIMIWFPFKSWEDVRNLIRDLARELNLPPGRDVDVKVERHPNNGYFRVTVTVSNPNGEKIDITIWFPMWDS [r1_84_TrROS] | 3.42 ± 0.1 kcal/mol | 4.91 ± 0.16 kcal/mol | 5.26 ± 0.15 kcal/mol |
| SAGGSAGGSAGGMVETGTPSSGSSSPSYVLTTTTLTLLDGTFVPTTTTTTFSDPAEAAAASAGGSAGGSAGG [r7_896_JUSTAS] | 1.52 ± 0.082 kcal/mol | 1.14 ± 0.086 kcal/mol | 0.411 ± 0.077 kcal/mol |
| SAMITVEIVDPLPDIANLSEEEAKALAEELAEEYAKKKFPNENVKITKVEVELEPETPEIRVTVTLELKSAG [r14_310_JUSTAS] | 2.09 ± 0.16 kcal/mol | 2.37 ± 0.15 kcal/mol | 2.56 ± 0.083 kcal/mol |
| SAGGSAGGSGSSSLLEETTDASGVRHLLTLVRLPGGKVLLVTTTVYPSGESTTTTEETDGSLLSAGGSAGGS [r12_995_JUSTAS] | 2.58 ± 0.06 kcal/mol | 2.11 ± 0.059 kcal/mol | 1.53 ± 0.036 kcal/mol |
| SAGGSAGGNGPPDIKIKIEILEVHPGHRDPDGKYYFRVRVEIEYPNKPVKVDFPMPADDAKDLISAGGSAGG [r6_724_TrROS] | 2.93 ± 0.11 kcal/mol | 3.66 ± 0.15 kcal/mol | 4.2 ± 0.092 kcal/mol |
| SAGGSAGGSAMELVVKEVEYRGPLSLSIEEIAEEIEKKEGIKVIELEEYPDEKVKITIEKVSAGGSAGGSAG [r3_66_JUSTAS] | -0.463 ± 0.16 kcal/mol | 0.485 ± 0.19 kcal/mol | 0.764 ± 0.12 kcal/mol |
| SAGGSAGGSEFYVIKIKNPETKKEIELVFEGSEEEIKAAIEELAKKPNLKIEIKKIKVSKEELSAGGSAGGS [r12_92_TrROS_Hall] | 1.43 ± 0.085 kcal/mol | 1.89 ± 0.18 kcal/mol | 1.78 ± 0.074 kcal/mol |
| SMEEIAKEIAEKAGVNWENVEFKVEEKEDPETGEKYLIAHVVIKLPNEKYIAVIDLRDKKILEIWKLEDISA [r9_1219_TrMRF] | 2.91 ± 0.11 kcal/mol | 3.61 ± 0.11 kcal/mol | 3.73 ± 0.063 kcal/mol |
| SAGGSAGGSAAEVEVETLELEIDGVKITVTRVRNADGELLYFARIEVRPAPPPPPVSLEDLSAGGSAGGSAG [r3_68_TrROS_Hall] | 3.02 ± 0.093 kcal/mol | 3.23 ± 0.12 kcal/mol | 3.25 ± 0.074 kcal/mol |
| MPLGLESERYPNGAPTIESVEVPEDGSVKITLYFPETGEKVEYTLPPNIPPGTEYEIDLPGPTGTGRLRLGS [r1_43_TrMRF] | -0.204 ± 0.2 kcal/mol | 1.27 ± 0.2 kcal/mol | 1.65 ± 0.15 kcal/mol |
| SAGGSASAEELAAELARRLAEELGLEVTKVEITEVTPDRVVVRVTVTVTLPNGEKVTRELTLVLEPSAGGSA [r15_276_TrROS_Hall] | 2.16 ± 0.054 kcal/mol | 3.05 ± 0.11 kcal/mol | 3.24 ± 0.12 kcal/mol |

| Sequence | folding stability dG unfold [1] | folding stability dG unfold [2] | folding stability dG unfold [3] |
| --- | --- | --- | --- |
| SAGGSEIKIEIKYDEETGELVVEITVPESEEEVKKLVEELKKLGVEKVEIVRDKKTKEYRIRVVFKSAGGSA [r2_358_TrROS_Hall] | 3.28 ± 0.14 kcal/mol | 4.82 ± 0.57 kcal/mol | 4.98 ± 0.3 kcal/mol |
| SAGGSAEEARALAEQVREEVRAAHAPDEVVTVTVELPDGTRVEVTFDAAGEVLSVTIYRPDGTPELSAGGSA [r2_84_JUSTAS] | 1.04 ± 0.025 kcal/mol | 1.88 ± 0.077 kcal/mol | 2.27 ± 0.049 kcal/mol |
| SAGGSAGGSAGGPNIKIKDVHEHPPEDGNPIVMFEIKAKDDDGEKVYIIITPDKIHIMPISAGGSAGGSAGG [r7_960_TrROS] | 1 ± 0.07 kcal/mol | 0.927 ± 0.21 kcal/mol | 1.15 ± 0.21 kcal/mol |
| SAGGSAMYEVTEEKDPNSDYTTVTITFPNGATVTITYNPKTNTITADVDPAVDPEVAAAAAKAVLSSAGGSA [r15_511_JUSTAS] | 1.92 ± 0.067 kcal/mol | 2.23 ± 0.071 kcal/mol | 2.39 ± 0.028 kcal/mol |
| SAGGSAGGSAGNDVINKKYTYTITETTEEKTPTDDPVSTTITTPIEITVKAPKDEVVIPDSAGGSAGGSAGG [r11_174_JUSTAS] | -0.6 ± 0.15 kcal/mol | 0.31 ± 0.22 kcal/mol | 0.644 ± 0.25 kcal/mol |
| SAGGSAGGSAGGGVVTLPDLKGLSEEELKALAEEIAKKLGLENVPLKLEFGEDGNLTLVLSAGGSAGGSAGG [r7_810_JUSTAS] | 2.15 ± 0.077 kcal/mol | 1.74 ± 0.11 kcal/mol | 1.24 ± 0.054 kcal/mol |
| SAGGSVIVKLPNGKILEVSPSELAGYKPGAAVKFPDGTAQVVNPETDEVIDIPIDSPEKIIEAIKKAASAGG [r13_962_TrMRF] | 0.0192 ± 0.1 kcal/mol | 0.163 ± 0.24 kcal/mol | 0.365 ± 0.077 kcal/mol |
| SAGGGPDLVIDVEILEIRVEPEPGKTATIRVRALIYNPETDTWTLAEFEIRIPDDGSVEVRFRVEPLRSAGG [r13_917_TrMRF] | 3.08 ± 0.082 kcal/mol | 3.76 ± 0.074 kcal/mol | 4.13 ± 0.05 kcal/mol |
| SAGEFKIDILPGDNVARITSPEGSFLAPFTATFTFDVPDIADPNKIKPKPVVFNLVIEMKLDDFFDLLSSAG [r5_234_TrMRF] | 2.49 ± 0.1 kcal/mol | 3.36 ± 0.15 kcal/mol | 4.17 ± 0.17 kcal/mol |
| SASMEAALAKVEEITAEPSWELVGVSPEGVFTIRNPETGTEIVIEIKVTSDGKGYKVTIPSKTVVPAPESAG [r14_20_JUSTAS] | 1.45 ± 0.096 kcal/mol | 1.38 ± 0.12 kcal/mol | 1.3 ± 0.13 kcal/mol |
| SAGGSAGGSAGPITYRLEIRYEIERIEVRVYPGPEGPLVGEFRIEVRLEVRVEALPPEETSAGGSAGGSAGG [r11_24_TrMRF] | 3.69 ± 0.17 kcal/mol | 4.53 ± 0.16 kcal/mol | 4.88 ± 0.12 kcal/mol |
| SAGGSAGGSAGKKLKPFKVVEVKEPVKEGDVIEVENEATGELYRFTVVNGEIKIEKVKLDSAGGSAGGSAGG [r11_94_TrROS_Hall] | 0.225 ± 0.053 kcal/mol | 0.365 ± 0.29 kcal/mol | 0.442 ± 0.21 kcal/mol |
| SAGGSAMKKTITVTLSYPETGETRTVTVELTDIPESDPEKWKALAEEVAEALAKERGAEVLGIEISSAGGSA [r15_1013_JUSTAS] | 4.9 ± 0.14 kcal/mol | 4.72 ± 0.065 kcal/mol | 4.6 ± 0.066 kcal/mol |
| SAGGSAGGSAGMTLEELLRKAKPGQTLTLRVRVVERNEDGSLSEREFTFTFRLELKPEDLSAGGSAGGSAGG [r11_347_TrROS_Hall] | 2.55 ± 0.077 kcal/mol | 3.15 ± 0.21 kcal/mol | 3.61 ± 0.06 kcal/mol |
| SEKPEFKIVKIEVVEVDEDGKTVKVRVVVEGPDGRLYEVEMTLEELKKLLEELGIDLEDIKPGDVIVIPPSA [r9_1078_TrROS_Hall] | 3.75 ± 0.11 kcal/mol | 3.58 ± 0.15 kcal/mol | 3.09 ± 0.073 kcal/mol |
